Measured values: publication doi:10.1101/317909

Biological target: T1, ZC3H12B PIN-ZnF fragment (human, UniProt Q5HYM0 179-397)
T1 sequence: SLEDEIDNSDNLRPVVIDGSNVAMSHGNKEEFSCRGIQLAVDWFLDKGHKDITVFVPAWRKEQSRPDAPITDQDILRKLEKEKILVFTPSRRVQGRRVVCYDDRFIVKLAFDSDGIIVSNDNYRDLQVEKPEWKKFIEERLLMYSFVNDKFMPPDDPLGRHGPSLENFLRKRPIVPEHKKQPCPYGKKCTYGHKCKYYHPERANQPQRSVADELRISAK
Assay: X-ray crystallography

B1: 21-nt HTR-SELEX-enriched RNA (ssRNA)
RNA: AAUGCGACAGUCGGUAGCAUC
modifications: phosphorothioate bond between nt 1 and 2 (5' end)
**Q.** Does B1 bind?
**A.** binds
